The text below walks through data of patent publication US10260060B2, “Genetically modified phenylpyruvate decarboxylase, processes to prepare, and uses thereof” (Dow Global Technologies LLC, priority 2014, dated 2019).

Where a chain is given by its changes, count along the chain named. Numbers in names are those of the source.

In data set [1] the test system is Azospirillum brasilense phenylpyruvate decarboxylase (AbPPDC). As to conditions: Spaepen et al., J. Bacteriol., 2007; cited from earlier work.
Substrate in data set [2]: CCCCCCCC(=O)C(=O)O
Kind of data set: HTP AbPPDC coupled enzyme assay (ADH6/NADPH), 2-ketoacid decarboxylation kinetics, Q536A. The format is biochemical, Azospirillum brasilense. As to conditions: other: pH 6.8, 30° C, 2-ketoacid 0 to 4 mM, Hill equation, mean ± standard error. The method, then:
(§1) The evaluation of the AbPPDC variants is performed in two steps using the high-throughput enzyme assay described hereinbelow. Initially, all the variants are tested for activity against a single high concentration (2 mM) of 2-KH and 2-KN (as shown in Table 1). Following the initial evaluation, detailed kinetic analysis is performed on a select number of variants to determine the maximal rate (kcat), substrate concentration yielding half maximal rate (K0.5, equivalent of KM for enzymes following Michaelis-Menten kinetics), and the catalytic efficiency of the enzyme (kcat/K0.5) against 2-KO and 2-KN (as shown in Table 2). AbPPDC variants, having higher specificity (higher kcat/K0.5) for 2-KN, will be efficient in producing octanal and chemicals derived from it inside the cells.
(§2) To evaluate the substrate specificity of the wild type AbPPDC and its variants listed in Table 1, genes of all the proteins are expressed in E. coli cells separately and the protein products are isolated from the cells. The gene sequence of the Azospirillum brasilense phenylpyruvate decarboxylase (GenBank: Accession no. L26240) is downloaded from the NCBI database. Codons of 13 additional amino acids that include six (6) histidines (his) are added upstream of the Met-1 codon of the AbPPDC gene sequence. Such a modification allows expression of a Histidine-tagged AbPPDC having 13 additional amino acids on the N-terminus. The additional amino acids are attached as an aid for purifying the protein in a single step using Ni-NTA chromatography. The entire AbPPDC sequence with 13 additional amino acids (SEQ ID 2) is chemically synthesized and then cloned into the pRSFDuet-1 vector (EMD Biosciences) downstream of the T7 polymerase promoter by Synthetic Genomics, Inc. (San Diego, Calif.). The final vector is sequenced by Synthetic Genomics, Inc. before shipping.
(§3) Genes of the AbPPDC variants listed in Table 1 are either chemically synthesized or generated using New England Biolab's Q5 Site-directed Mutagenesis Kit (cat. no. E0554S) and cloned into the pRSFDuet-1 vector. The pRSFDuet-1 vector containing AbPPDC or the AbPPDC variant gene is transformed into E. coli, AbPPDC or its variant, then expressed and eventually purified, as described below.
(§4) A high-throughput AbPPDC coupled enzyme assay is developed for evaluating the substrate specificity of AbPPDC variants. The assay involves reducing the aldehyde produced from AbPPDC mediated 2-ketoacid decarboxylation, using an alcohol dehydrogenase (ADH6, GenBank: Accession No. NP 014051.3). The initial velocities of the AbPPDC catalyzed reactions are determined from the rates of oxidation of reduced nicotinamide adenine dinucleotide phosphate (NADPH) occurring during the ADH6 catalyzed reduction of aldehyde.
(§5) The HTP screening assay involves incubating 2 mM 2-KH or 2 mM 2-KN with 0.5 mM thiamine diphosphate, 0.35 mM NADPH, 4.7 micrograms (μg) of yeast ADH6 (GenBank: Accession No. NP 014051.3) and 0.3 milligrams per milliliter (mg/mL) bovine serum albumin (BSA) in AbPPDC assay buffer (50 mM 3-(N-morpholino)propanesulfonic acid, pH 6.8, containing 2.5 mM magnesium chloride (MgCl2)) at 30° C. The reaction is started by addition at 30° C. of working enzyme stock containing from 0.5 μg to 3.5 μg of AbPPDC variant diluted in AbPPDC assay buffer containing 1 mg/mL BSA. The plate containing the 200 μL of reaction mixture is centrifuged at 2500×g for 15 sec and the absorbance change of the reaction mixture followed spectrophotometrically at 340 nm on a BioTek™ plate reader, pre-equilibrated at 30° C. Initial velocity of the enzyme reaction is calculated using the rate of NADPH consumption at 340 nm and the extinction coefficient of NADPH (6.22 mM^−1 cm^−1). The activity of all the variants is normalized with the amount of enzyme present in the reaction mixture and expressed as nanomoles per minute per milligram (nmol·min^−1·mg^−1). […]

Substrate in data set [3]: CCCCCCC(=O)C(=O)O
The data set is described as above. The format is biochemical, Azospirillum brasilense. As to conditions: other: pH 6.8, 30° C, 2-ketoacid 0 to 4 mM, Hill equation, mean ± standard error. The method, then:
as §1, §2, §3, §4, §5

Substrate in data set [4]: CCCCCCCC(=O)C(=O)O
Kind of data set: HTP AbPPDC coupled enzyme assay (ADH6/NADPH), 2-ketoacid decarboxylation kinetics, Q536I. The format is biochemical, Azospirillum brasilense. Particulars: other: pH 6.8, 30° C, 2-ketoacid 0 to 4 mM, Michaelis-Menten equation, mean ± standard error. The method, then: as §1, §2, §3, §4, §5

Substrate in data set [5]: CCCCCCC(=O)C(=O)O
The data set is described as above. The format is biochemical, Azospirillum brasilense. Particulars: other: pH 6.8, 30° C, 2-ketoacid 0 to 4 mM, Michaelis-Menten equation, mean ± standard error. The method, then:
as §1, §2, §3, §4, §5

Substrate in data set [6]: CCCCCCCC(=O)C(=O)O
Briefly: HTP AbPPDC coupled enzyme assay (ADH6/NADPH), 2-ketoacid decarboxylation kinetics, wild type. The format is biochemical, Azospirillum brasilense. As to conditions: other: pH 6.8, 30° C, 2-ketoacid 0 to 4 mM, Hill equation, mean ± standard error. The method, then:
as §1, §2, §4
(§6) The HTP screening assay involves incubating 2 mM 2-KH or 2 mM 2-KN with 0.5 mM thiamine diphosphate, 0.35 mM NADPH, 4.7 micrograms (μg) of yeast ADH6 (GenBank: Accession No. NP 014051.3) and 0.3 milligrams per milliliter (mg/mL) bovine serum albumin (BSA) in AbPPDC assay buffer (50 mM 3-(N-morpholino)propanesulfonic acid, pH 6.8, containing 2.5 mM magnesium chloride (MgCl2)) at 30° C. The reaction is started by addition at 30° C. of working enzyme stock containing from 0.5 μg to 3.5 μg of AbPPDC variant diluted in AbPPDC assay buffer containing 1 mg/mL BSA. The plate containing the 200 μL of reaction mixture is centrifuged at 2500×g for 15 sec and the absorbance change of the reaction mixture followed spectrophotometrically at 340 nm on a BioTek™ plate reader, pre-equilibrated at 30° C. Initial velocity of the enzyme reaction is calculated using the rate of NADPH consumption at 340 nm and the extinction coefficient of NADPH (6.22 mM^−1 cm^−1). The activity of all the variants is normalized with the amount of enzyme present in the reaction mixture and expressed as nanomoles per minute per milligram (nmol·min^−1·mg^−1). Protein concentrations for normalizing the activities are determined using the 660 nm total protein assay kit from Pierce Biotechnology Inc., available from Thermo Fisher Scientific, Inc., using BSA as the standard.
(§7) The kinetic parameters of the decarboxylation of 2-ketooctanoate (2-KO) and 2-ketononanoate (2-KN) by AbPPDC and its variants are also determined using the same HTP AbPPDC coupled enzyme assay, except that the concentrations of 2-KO or 2-KN are varied from 0 to 4 mM. […]

Substrate in data set [7]: CCCCCCC(=O)C(=O)O
The description is as above. The format is biochemical, Azospirillum brasilense. Particulars: other: pH 6.8, 30° C, 2-ketoacid 0 to 4 mM, Hill equation, mean ± standard error. The method, then:
as §1, §2, §4, §6, §7

Substrate in data set [8]: CCCCCCCC(=O)C(=O)O
Briefly: HTP AbPPDC coupled enzyme assay (ADH6/NADPH), 2-ketoacid decarboxylation kinetics, M461L. As to conditions: other: pH 6.8, 30° C, 2-ketoacid 0 to 4 mM, Hill equation, mean ± standard error. The format is biochemical, Azospirillum brasilense. The method, then: as §1, §2, §3, §4, §5

Substrate in data set [9]: CCCCCCC(=O)C(=O)O
The description is as above. Particulars: other: pH 6.8, 30° C, 2-ketoacid 0 to 4 mM, Hill equation, mean ± standard error. The format is biochemical, Azospirillum brasilense. The method, then:
as §1, §2, §3, §4, §5

Substrate in data set [10]: CCCCCCCC(=O)C(=O)O
Kind of data set: HTP AbPPDC coupled enzyme assay (ADH6/NADPH), 2-ketoacid decarboxylation kinetics, F385L. The format is biochemical, Azospirillum brasilense. Particulars: other: pH 6.8, 30° C, 2-ketoacid 0 to 4 mM, Hill equation, mean ± standard error. The method, then: as §1, §2, §3, §4, §5

Substrate in data set [11]: CCCCCCC(=O)C(=O)O
The description is as above. As to conditions: other: pH 6.8, 30° C, 2-ketoacid 0 to 4 mM, Hill equation, mean ± standard error. The format is biochemical, Azospirillum brasilense. The method, then: as §1, §2, §3, §4, §5

Substrate in data set [12]: CCCCCCCC(=O)C(=O)O
Kind of data set: HTP AbPPDC coupled enzyme assay (ADH6/NADPH), 2-ketoacid decarboxylation kinetics, Q536L. The format is biochemical, Azospirillum brasilense. As to conditions: other: pH 6.8, 30° C, 2-ketoacid 0 to 4 mM, Michaelis-Menten equation, mean ± standard error. The method, then: as §1, §2, §3, §4, §5

Substrate in data set [13]: CCCCCCC(=O)C(=O)O
The data set is described as above. The format is biochemical, Azospirillum brasilense. Particulars: other: pH 6.8, 30° C, 2-ketoacid 0 to 4 mM, Michaelis-Menten equation, mean ± standard error. The method, then: as §1, §2, §3, §4, §5

Consider `O=C(O)C(=O)Cc1ccccc1` [phenylpyruvic acid], for which the catalytic efficiency result in [1] was “high catalytic efficiencies”.

B1: Azospirillum brasilense phenylpyruvate decarboxylase (AbPPDC) variant Q536A, SEQ ID 34 (Azospirillum brasilense; Q536A) (protein)
chain: MKLAEALLRALKDRGAQAMFGIPGDFALPFFKVAEETQILPLHTLSHEPAVGFAADAAARYSSTLGVAAVTYGAGAFNMVNAVAGAYAEKSPVVVISGAPGTTEGNAGLLLHHQGRTLDTQFQVFKEITVAQARLDDPAKAPAEIARVLGAARALSRPVYLEIPRNMVNAEVEPVGDDPAWPVDRDALAACADEVLAAMRSATSPVLMVCVEVRRYGLEAKVAELAQRLGVPVVTTFMGRGLLADAPTPPLGTYIGVAGDAEITRLVEESDGLFLLGAILSDTNFAVSQRKIDLRKTIHAFDRAVTLGYHTYADIPLAGLVDALLEGLPPSDRTTRGKEPHAYPTGLQADGEPIAPMDIARAVNDRVRAGQEPLLIAADMGDCLFTAMDMIDAGLMAPGYYAGMGFGVPAGIGAQCVSGGKRILTVVGDGAFQMTGWELGNCRRLGIDPIVILFNNASWEMLRTFQPESAFNDLDDWRFADMAAGMGGDGVRVRTRAELKAALDKAFATRGRFQLIEAMIPRGVLSDTLARFVQGAKRLHAAPRE
notes: made in house; host or cells: E. coli BL21(DE3)
B1: in data set [2], the K0.5 stood at 0.52 ± 0.03 mM, the kcat came out at 0.5 ± 0.017 s⁻¹ and the kcat/Km came out at 967 ± 67 M⁻¹ s⁻¹. In addition, in [3], the K0.5 worked out at 0.72 ± 0.02 mM, the kcat amounted to 0.333 ± 0.0033 s⁻¹ and the kcat/Km worked out at 450 ± 17 M⁻¹ s⁻¹.

B2: Azospirillum brasilense phenylpyruvate decarboxylase (AbPPDC) variant Q536I, SEQ ID 38 (Azospirillum brasilense; Q536I) (protein)
chain: B1 chain with A536I
notes: as for B1
Regarding B2, in [4], the K0.5 was found to be 0.69 ± 0.09 mM, the kcat is 1.05 ± 0.05 s⁻¹ and the kcat/Km turned out to be 1530 ± 217 M⁻¹ s⁻¹. Moreover, in [5], the K0.5 worked out at 0.71 ± 0.07 mM, the kcat was 0.533 ± 0.0183 s⁻¹ and the kcat/Km was determined as 750 ± 83 M⁻¹ s⁻¹.

B3: Azospirillum brasilense phenylpyruvate decarboxylase (AbPPDC), wild type, SEQ ID 4 (GenBank L26240), 13-amino acid N-terminal histidine tag (Azospirillum … (protein)
chain: B1 chain with A536Q
notes: as for B1
As for B3, in [6], the K0.5 is given as 1.23 ± 0.02 mM, the kcat was 0.333 ± 0 s⁻¹ and the kcat/Km is 270 ± 6.7 M⁻¹ s⁻¹. In data set [7], the K0.5 was found to be 1.7 ± 0.1 mM, the kcat worked out at 0.25 ± 0.012 s⁻¹ and the kcat/Km was 150 ± 12 M⁻¹ s⁻¹.

B4: Azospirillum brasilense phenylpyruvate decarboxylase (AbPPDC) variant M461L, SEQ ID 18 (Azospirillum brasilense; M461L) (protein)
chain: B1 chain with M461L, A536Q
notes: as for B1
On to B4, for which, in [8], the K0.5 was determined as 0.97 ± 0.04 mM, the kcat was 0.467 ± 0.017 s⁻¹ and the kcat/Km turned out to be 483 ± 23.3 M⁻¹ s⁻¹. Moreover, in data set [9], the K0.5 is listed as 1.4 ± 0.1 mM, the kcat was 0.2 ± 0.0083 s⁻¹ and the kcat/Km amounted to 148 ± 12 M⁻¹ s⁻¹.

B5: Azospirillum brasilense phenylpyruvate decarboxylase (AbPPDC) variant F385L, SEQ ID 8 (Azospirillum brasilense; F385L) (protein)
chain: B1 chain with F385L, A536Q
notes: as for B1
For B5, in [10], the K0.5 is 2.39 ± 0.26 mM, the kcat turned out to be 0.283 ± 0.017 s⁻¹ and the kcat/Km was 117 ± 16.7 M⁻¹ s⁻¹. For the same molecule, in data set [11], the K0.5 is given as 2.3 ± 0.5 mM, the kcat amounted to 0.0283 ± 0.005 s⁻¹ and the catalytic efficiency (kcat/Km) was determined as 13 ± 3.3 M⁻¹ s⁻¹.

B6: Azospirillum brasilense phenylpyruvate decarboxylase (AbPPDC) variant Q536L, SEQ ID 36 (Azospirillum brasilense; Q536L) (protein)
chain: B1 chain with A536L
notes: as for B1
On to B6, for which, in data set [12], the K0.5 was found to be 1.51 ± 0.26 mM, the kcat was determined as 1.38 ± 0.1 s⁻¹ and the kcat/Km was found to be 933 ± 183 M⁻¹ s⁻¹. In data set [13], the K0.5 came to 1.34 ± 0.23 mM, the kcat turned out to be 0.45 ± 0.0283 s⁻¹ and the kcat/Km was 350 ± 67 M⁻¹ s⁻¹.

For orientation: kcat means the maximal rate divided by the concentration of active sites. The term kcat/Km denotes the turnover number divided by the Michaelis constant.
